Test in all cases: indirect ELISA, cross-reaction on 9 HPV type antigens
For orientation: An ELISA detects its analyte on a solid surface through an enzyme-linked reagent.

One experiment addresses T1, HPV18亚型抗原 (Human papillomavirus type 18, UniProt P06794 62-568).
T1 construct: Called only 'HPV18 antigen'
T1 sequence: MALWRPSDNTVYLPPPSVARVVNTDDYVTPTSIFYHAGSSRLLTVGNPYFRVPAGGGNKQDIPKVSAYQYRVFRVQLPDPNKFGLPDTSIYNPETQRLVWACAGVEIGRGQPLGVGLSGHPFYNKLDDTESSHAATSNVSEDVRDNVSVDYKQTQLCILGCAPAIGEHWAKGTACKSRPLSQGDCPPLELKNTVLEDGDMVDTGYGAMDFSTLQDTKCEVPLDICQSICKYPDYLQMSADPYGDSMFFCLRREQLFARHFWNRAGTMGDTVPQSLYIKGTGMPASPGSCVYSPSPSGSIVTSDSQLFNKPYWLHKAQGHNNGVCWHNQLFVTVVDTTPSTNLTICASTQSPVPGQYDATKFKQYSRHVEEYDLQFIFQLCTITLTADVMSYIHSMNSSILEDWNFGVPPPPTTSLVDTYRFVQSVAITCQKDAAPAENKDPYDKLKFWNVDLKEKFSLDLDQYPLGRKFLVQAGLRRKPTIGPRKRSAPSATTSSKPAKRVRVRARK

The target of a further experiment is T2, HPV 33亚型抗原 (Human papillomavirus type 33, UniProt P06416 1-499).
T2 construct: Called only 'HPV 33 antigen'
T2 sequence: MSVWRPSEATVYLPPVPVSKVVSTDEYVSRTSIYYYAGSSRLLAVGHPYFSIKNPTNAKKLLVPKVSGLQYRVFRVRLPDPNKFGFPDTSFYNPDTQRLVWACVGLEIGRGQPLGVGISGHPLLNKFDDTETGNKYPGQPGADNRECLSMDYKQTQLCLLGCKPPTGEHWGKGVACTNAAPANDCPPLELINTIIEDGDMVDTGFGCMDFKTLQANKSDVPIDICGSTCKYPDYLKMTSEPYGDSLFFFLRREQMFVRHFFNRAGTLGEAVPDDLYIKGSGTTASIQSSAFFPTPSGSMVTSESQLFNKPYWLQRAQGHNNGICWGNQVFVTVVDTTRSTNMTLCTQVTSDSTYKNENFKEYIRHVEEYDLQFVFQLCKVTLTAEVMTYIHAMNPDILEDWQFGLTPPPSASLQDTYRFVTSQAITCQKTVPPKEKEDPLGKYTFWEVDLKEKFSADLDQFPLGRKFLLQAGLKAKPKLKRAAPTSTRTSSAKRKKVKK

A further experiment deals with T3, HPV 45亚型抗原 (Human papillomavirus type 45, UniProt P36741 30-539).
T3 construct: Called only 'HPV 45 antigen'
T3 sequence: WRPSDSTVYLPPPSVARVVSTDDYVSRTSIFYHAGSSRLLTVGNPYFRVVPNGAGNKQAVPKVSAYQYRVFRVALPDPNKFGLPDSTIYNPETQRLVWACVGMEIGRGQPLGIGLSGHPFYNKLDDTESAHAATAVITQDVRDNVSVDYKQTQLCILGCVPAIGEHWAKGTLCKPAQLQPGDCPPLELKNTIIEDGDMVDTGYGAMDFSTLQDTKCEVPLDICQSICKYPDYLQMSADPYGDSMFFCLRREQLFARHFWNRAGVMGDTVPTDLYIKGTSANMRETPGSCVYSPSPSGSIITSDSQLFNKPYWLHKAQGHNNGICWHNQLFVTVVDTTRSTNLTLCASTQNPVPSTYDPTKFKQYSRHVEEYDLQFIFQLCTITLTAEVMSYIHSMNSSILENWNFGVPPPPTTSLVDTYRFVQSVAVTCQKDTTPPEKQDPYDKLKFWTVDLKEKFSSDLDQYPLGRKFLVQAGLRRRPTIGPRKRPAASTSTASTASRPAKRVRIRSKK

The target of a further experiment is T4, HPV 58亚型抗原 (Human papillomavirus type 58, UniProt P26535 27-524).
T4 construct: Called only 'HPV 58 antigen'
T4 sequence: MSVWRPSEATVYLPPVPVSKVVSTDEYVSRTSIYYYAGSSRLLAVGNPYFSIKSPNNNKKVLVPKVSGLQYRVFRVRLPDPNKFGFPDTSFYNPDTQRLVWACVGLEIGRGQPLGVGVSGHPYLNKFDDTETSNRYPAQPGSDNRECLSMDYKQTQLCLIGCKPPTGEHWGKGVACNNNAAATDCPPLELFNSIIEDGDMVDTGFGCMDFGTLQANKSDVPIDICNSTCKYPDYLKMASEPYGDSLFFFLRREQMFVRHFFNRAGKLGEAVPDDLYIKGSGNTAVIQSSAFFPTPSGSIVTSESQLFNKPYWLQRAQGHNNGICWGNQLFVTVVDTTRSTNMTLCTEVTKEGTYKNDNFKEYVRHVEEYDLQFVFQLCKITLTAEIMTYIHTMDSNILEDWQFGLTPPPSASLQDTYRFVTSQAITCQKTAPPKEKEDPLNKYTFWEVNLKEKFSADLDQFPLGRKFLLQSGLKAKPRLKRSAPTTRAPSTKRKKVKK

Another experiment addresses T5, HPV11亚型抗原 (Human papillomavirus type 11, UniProt P04012 1-501).
T5 construct: Called only 'HPV11 antigen'
T5 sequence: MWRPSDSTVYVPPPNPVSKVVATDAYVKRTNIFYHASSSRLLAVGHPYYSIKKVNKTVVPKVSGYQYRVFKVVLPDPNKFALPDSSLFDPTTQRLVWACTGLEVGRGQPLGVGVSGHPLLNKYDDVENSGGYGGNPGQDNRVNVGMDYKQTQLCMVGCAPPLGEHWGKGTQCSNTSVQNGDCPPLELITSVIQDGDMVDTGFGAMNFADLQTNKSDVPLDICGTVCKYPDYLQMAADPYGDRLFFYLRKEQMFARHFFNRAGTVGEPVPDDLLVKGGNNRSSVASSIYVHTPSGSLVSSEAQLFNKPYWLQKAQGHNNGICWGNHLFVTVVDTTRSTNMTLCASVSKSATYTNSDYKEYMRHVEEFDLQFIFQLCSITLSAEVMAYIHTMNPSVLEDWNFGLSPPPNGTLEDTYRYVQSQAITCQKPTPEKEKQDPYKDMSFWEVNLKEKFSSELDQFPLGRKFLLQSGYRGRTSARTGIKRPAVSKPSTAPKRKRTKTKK

The target of another experiment is T6, HPV 16亚型抗原 (Human papillomavirus type 16, UniProt P03101 1-505).
T6 construct: Called only 'HPV 16 antigen'
T6 sequence: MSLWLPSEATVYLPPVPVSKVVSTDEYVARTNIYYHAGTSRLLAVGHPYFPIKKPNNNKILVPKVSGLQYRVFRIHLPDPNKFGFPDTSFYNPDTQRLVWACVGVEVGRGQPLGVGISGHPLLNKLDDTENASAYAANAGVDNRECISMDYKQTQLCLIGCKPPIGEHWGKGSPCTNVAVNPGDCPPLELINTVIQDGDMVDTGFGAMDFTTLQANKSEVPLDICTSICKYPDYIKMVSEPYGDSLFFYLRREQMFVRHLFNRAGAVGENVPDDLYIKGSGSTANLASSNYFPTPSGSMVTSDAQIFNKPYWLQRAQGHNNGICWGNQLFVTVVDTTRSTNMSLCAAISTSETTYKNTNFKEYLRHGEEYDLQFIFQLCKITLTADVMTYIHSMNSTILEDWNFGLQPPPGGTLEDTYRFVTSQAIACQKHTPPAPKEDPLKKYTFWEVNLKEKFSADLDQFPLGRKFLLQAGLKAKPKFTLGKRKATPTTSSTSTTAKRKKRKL

This is an account of results in patent CN116199772A (YIDAO BIOTECHNOLOGY SUZHOU CO LTD, dated 2023).

B1: HPV31型单克隆抗体(7H9) (antibody, V domains shown)
VH: QIQLVQSGPELKKPGETVKISCKASGYTFTNYGMNWVKQAPGKGLKWMGWINTYTGEPTYADDFKGRFAFSLETSANTAYLQITNLKNEDMATYFCARRITMEYYYGLDCWGQGTSVTVSS
VL: QAVVTQESALTTSPGETVTLTCRSSTGAVTTSNYANWVQEKPDHLFSGLIGGTNNRVPGVPARFSGSLIGDKAALTITGAQTEDEAIYFCALWYSNHWVFGGGTKLTVL
notes: also called 7H9抗体; HPV31型(7H9)鼠单抗
As for B1, the binding result in the experiment with HPV18亚型抗原, with HPV 33亚型抗原, with HPV 45亚型抗原, in the experiment with HPV 58亚型抗原, in the experiment with HPV11亚型抗原 and with HPV 16亚型抗原 was “no binding (tested: 抗原1μg/ml包被; 杂交瘤细胞上清20倍稀释)” throughout.
